Source: US20040053872, “New sequences” (published 2004)

Key:
HIV-1 RT reference [1] = target: T1, HIV-1 RT reference (HIV-1 subtype B (clone BH10), UniProt P03366;P03366 P03366:600-1159,P03366:600-1039); test: inhibition; second strand DNA synthesis, 33 C
HIV-1 RT reference [2] = target: T1, HIV-1 RT reference; test: competition; BIC50, RT binding to primer; 33 C
HIV-1 RT reference [3] = target: T1, HIV-1 RT reference; test: inhibition; RNA-dependent DNA polymerisation, preincubated 30 min, 33 C; settings: two stem-loops (D and anticodon)
HIV-1 RT reference [4] = target: T1, HIV-1 RT reference; test: competition; BIC50, RT binding to template/primer; 33 C
HIV-1 RT reference [5] = target: T1, HIV-1 RT reference; test: inhibition; RNA-dependent DNA polymerisation, 33 C; settings: hairpin
[6] = two stem-loops (D and anticodon)

Binder	IC50 (HIV-1 RT reference [1]; [6]) [nM]	IC50 (HIV-1 RT reference [2]; [6]) [nM]	IC50 (HIV-1 RT reference [3]) [nM]	IC50 (HIV-1 RT reference [4]; [6]) [nM]	IC50 (HIV-1 RT reference [1]; hairpin) [nM]	IC50 (HIV-1 RT reference [2]; hairpin) [nM]	IC50 (HIV-1 RT reference [4]; hairpin) [nM]	IC50 (HIV-1 RT reference [5]) [nM]
GCUCAGUCGGUAGAGCAUCAGACUUUUAAUCUGAG (ssRNA) [compound 199]	40	2	6.6	7				
CAGACUUUUAAUCUG (ssRNA, PS all linkages) [compound 198 (15-mer anticodon stem-loop)]					550	100	900	470
